T1: IL-18 receptor (IL-18Rα and IL-18Rβ) on HEK-Blue IL-18 cells (UniProt Q13478 19-541; O95256 20-599, limits assumed)
T1 sequence (looked up) 1: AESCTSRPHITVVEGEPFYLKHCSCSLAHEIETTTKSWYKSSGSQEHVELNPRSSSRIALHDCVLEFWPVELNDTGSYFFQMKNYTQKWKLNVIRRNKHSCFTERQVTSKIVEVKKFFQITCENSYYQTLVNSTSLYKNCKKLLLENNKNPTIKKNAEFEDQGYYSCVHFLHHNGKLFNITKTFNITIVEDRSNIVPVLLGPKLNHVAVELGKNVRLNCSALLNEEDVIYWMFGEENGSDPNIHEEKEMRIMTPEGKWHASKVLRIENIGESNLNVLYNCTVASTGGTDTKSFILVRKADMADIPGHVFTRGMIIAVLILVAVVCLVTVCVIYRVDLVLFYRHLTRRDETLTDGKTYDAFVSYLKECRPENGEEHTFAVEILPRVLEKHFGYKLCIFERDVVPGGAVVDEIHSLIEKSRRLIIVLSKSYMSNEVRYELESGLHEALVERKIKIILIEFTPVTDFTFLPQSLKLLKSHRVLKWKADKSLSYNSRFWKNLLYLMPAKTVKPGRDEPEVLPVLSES
T1 sequence (looked up) 2: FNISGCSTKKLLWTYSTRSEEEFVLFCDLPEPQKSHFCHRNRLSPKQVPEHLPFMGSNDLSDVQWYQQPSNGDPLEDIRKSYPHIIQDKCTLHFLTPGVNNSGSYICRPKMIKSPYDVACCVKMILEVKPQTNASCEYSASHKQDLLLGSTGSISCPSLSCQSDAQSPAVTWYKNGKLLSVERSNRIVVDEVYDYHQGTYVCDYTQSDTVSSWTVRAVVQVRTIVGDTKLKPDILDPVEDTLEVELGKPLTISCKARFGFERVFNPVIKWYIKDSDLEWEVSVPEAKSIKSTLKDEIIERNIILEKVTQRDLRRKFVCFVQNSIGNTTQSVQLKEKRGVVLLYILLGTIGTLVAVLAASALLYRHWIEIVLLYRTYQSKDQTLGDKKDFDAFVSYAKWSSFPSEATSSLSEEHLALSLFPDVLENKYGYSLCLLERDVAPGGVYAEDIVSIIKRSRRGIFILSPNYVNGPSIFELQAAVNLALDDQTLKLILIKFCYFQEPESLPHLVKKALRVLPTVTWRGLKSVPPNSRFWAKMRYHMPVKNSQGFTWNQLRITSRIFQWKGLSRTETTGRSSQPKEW

B1: DGL1146 (bispecific antibody, human IgG1, lambda)
heavy: EVQLLESGGGLVQPGGSLRLSCAASGFTFSDYYMTWIRQAPGKGLEWVSSISGGSTYYADSRKGRFTISRDNSENTLYLQMNSLRAEDTAVYYCARDFGVAGWFGQYGMDVWGQGTLVTVSSPLAPEVQLLESGGGLVQPGGSLRLSCAASGFTFSSYAMSWVRQAPGKGLEWVANINQDGSEKNYVDSMRGRFTISRDNSKNTLYLQMNSLRAEDTAVYYCAREFDYWGQGTLVTVSSASTKGPSVFPLAPSSKSTSGGTAALGCLVKDYFPEPVTVSWNSGALTSGVHTFPAVLQSSGLYSLSSVVTVPSSSLGTQTYICNVNHKPSNTKVDKKVEPKSCDKTHTCPPCPAPEAAGAPSVFLFPPKPKDTLMISRTPEVTCVVVDVSHEDPEVKFNWYVDGVEVHNAKTKPREEQYNSTYRVVSVLTVLHQDWLNGKEYKCKVSNKALPAPIEKTISKAKGQPREPQVYTLPPSRDELTKNQVSLTCLVKGFYPSDIAVEWESNGQPENNYKTTPPVLDSDGSFFLYSKLTVDKSRWQQGNVFSCSVLHEALHSHYTQKSLSLSPG
light: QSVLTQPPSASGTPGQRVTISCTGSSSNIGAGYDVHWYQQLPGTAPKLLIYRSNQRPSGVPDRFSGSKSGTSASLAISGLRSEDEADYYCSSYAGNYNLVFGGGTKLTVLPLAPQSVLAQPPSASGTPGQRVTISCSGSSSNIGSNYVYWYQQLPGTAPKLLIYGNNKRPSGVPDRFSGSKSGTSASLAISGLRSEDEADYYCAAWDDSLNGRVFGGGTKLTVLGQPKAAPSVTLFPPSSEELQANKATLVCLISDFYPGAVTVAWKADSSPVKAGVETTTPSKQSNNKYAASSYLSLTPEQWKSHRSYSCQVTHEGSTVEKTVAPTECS
B2: DGL209 (bispecific antibody)
chain 1: QVQLVESGGGLVQAGGSLRLSCAASGRTFSKHAMGWFRQAPGKEREFVAAIDWSGGSTYYADSVKGRFTISRDNAKNTVYLQMDSLKPEDTAVYYCAADSYTDYAQLWLPELESEYDYWGQGTLVTVSSPLAPCPPCPAPEAAGAPSVFLFPPKPKDTLMISRTPEVTCVVVDVSHEDPEVKFNWYVDGVEVHNAKTKPREEQYNSTYRVVSVLTVLHQDWLNGKEYKCKVSNKALPAPIEKTISKAKGQPREPQVCTLPPSRDELTKNQVSLSCAVKGFYPSDIAVEWESNGQPENNYKTTPPVLDSDGSFFLVSKLTVDKSRWQQGNVFSCSVMHEALHNHYTQKSLSLSPGWSHPQFEK
chain 2: QLQLVESGGGLVQAGGSLRLSCAASRSITFSHNVMGWYRQAPGKQRELVASIGSGGSTNYVDSVKGRATISRDNAKKTVYLQMNSLKPEDTAVYYCGVVVGVYRGSLGQGTLVTVSSPLAPCPPCPAPEAAGAPSVFLFPPKPKDTLMISRTPEVTCVVVDVSHEDPEVKFNWYVDGVEVHNAKTKPREEQYNSTYRVVSVLTVLHQDWLNGKEYKCKVSNKALPAPIEKTISKAKGQPREPQVYTLPPCRDELTKNQVSLWCLVKGFYPSDIAVEWESNGQPENNYKTTPPVLDSDGSFFLYSKLTVDKSRWQQGNVFSCSVMHEALHNHYTQKSLSLSPGEPEA
B3: DGL207 (bispecific antibody)
chain 1: QVQLVESGGGLVQAGGSLRLSCAASGRTFSKHAMGWFRQAPGKEREFVAAIDWSGGSTYYADSVKGRFTISRDNAKNTVYLQMDSLKPEDTAVYYCAADSYTDYAQLWLPELESEYDYWGQGTLVTVSSCPPCPAPEAAGAPSVFLFPPKPKDTLMISRTPEVTCVVVDVSHEDPEVKFNWYVDGVEVHNAKTKPREEQYNSTYRVVSVLTVLHQDWLNGKEYKCKVSNKALPAPIEKTISKAKGQPREPQVCTLPPSRDELTKNQVSLSCAVKGFYPSDIAVEWESNGQPENNYKTTPPVLDSDGSFFLVSKLTVDKSRWQQGNVFSCSVMHEALHNHYTQKSLSLSPGWSHPQFEK
chain 2: QLQLVESGGGLVQAGGSLRLSCAASRSITFSHNVMGWYRQAPGKQRELVASIGSGGSTNYVDSVKGRATISRDNAKKTVYLQMNSLKPEDTAVYYCGVVVGVYRGSLGQGTLVTVSSCPPCPAPEAAGAPSVFLFPPKPKDTLMISRTPEVTCVVVDVSHEDPEVKFNWYVDGVEVHNAKTKPREEQYNSTYRVVSVLTVLHQDWLNGKEYKCKVSNKALPAPIEKTISKAKGQPREPQVYTLPPCRDELTKNQVSLWCLVKGFYPSDIAVEWESNGQPENNYKTTPPVLDSDGSFFLYSKLTVDKSRWQQGNVFSCSVMHEALHNHYTQKSLSLSPGEPEA
B4: DGL093 (bispecific antibody, IgG1)
chain 1: QVQLVESGGGLVQAGGSLRLSCAASGRTFSKHAMGWFRQAPGKEREFVAAIDWSGGSTYYADSVKGRFTISRDNAKNTVYLQMDSLKPEDTAVYYCAADSYTDYAQLWLPELESEYDYWGQGTQVTVSSDKTHTCPPCPAPEAAGGPSVFLFPPKPKDTLMISRTPEVTCVVVDVSHEDPEVKFNWYVDGVEVHNAKTKPREEQYNSTYRVVSVLTVLHQDWLNGKEYKCKVSNKALPAPIEKTISKAKGQPREPQVCTLPPSRDELTKNQVSLSCAVKGFYPSDIAVEWESNGQPENNYKTTPPVLDSDGSFFLVSKLTVDKSRWQQGNVFSCSVMHEALHNHYTQKSLSLSPG
chain 2: not shown

How the values were obtained:
Experiment in all cases: cell-based or functional assay
[1] = target: ALK1 / BMPRII receptor pair (BMPR Type I receptor ALK1 and BMPR Type II receptor BMPRII) on cells (UniProt P37023 22-503; Q13873 27-1038, limits assumed)
[2] = target: T1, IL-18 receptor (IL-18Rα and IL-18Rβ) on …
[3] = target: T1, IL-18 receptor (IL-18Rα and IL-18Rβ) on …; remark: listed apart in the source

Chain of ALK1 / BMPRII receptor pair (BMPR Type I receptor ALK1 and BMPR Type II receptor BMPRII) on cells (P37023 22-503 limits assumed, chain 1 of 2): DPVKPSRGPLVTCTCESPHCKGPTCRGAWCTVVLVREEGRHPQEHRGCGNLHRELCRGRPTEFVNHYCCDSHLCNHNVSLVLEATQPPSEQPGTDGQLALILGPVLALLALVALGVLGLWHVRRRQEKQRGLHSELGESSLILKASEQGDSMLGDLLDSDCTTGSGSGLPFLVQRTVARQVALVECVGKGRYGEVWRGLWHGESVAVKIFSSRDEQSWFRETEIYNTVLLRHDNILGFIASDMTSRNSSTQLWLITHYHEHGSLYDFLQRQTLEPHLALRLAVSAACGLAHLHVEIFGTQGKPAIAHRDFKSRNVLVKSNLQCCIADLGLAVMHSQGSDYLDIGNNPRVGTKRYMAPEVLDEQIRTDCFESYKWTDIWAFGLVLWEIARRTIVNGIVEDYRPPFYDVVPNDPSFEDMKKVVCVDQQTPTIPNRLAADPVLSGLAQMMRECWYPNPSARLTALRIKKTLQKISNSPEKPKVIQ
Chain of ALK1 / BMPRII receptor pair (BMPR Type I receptor ALK1 and BMPR Type II receptor BMPRII) on cells (Q13873 27-1038 limits assumed, chain 2 of 2): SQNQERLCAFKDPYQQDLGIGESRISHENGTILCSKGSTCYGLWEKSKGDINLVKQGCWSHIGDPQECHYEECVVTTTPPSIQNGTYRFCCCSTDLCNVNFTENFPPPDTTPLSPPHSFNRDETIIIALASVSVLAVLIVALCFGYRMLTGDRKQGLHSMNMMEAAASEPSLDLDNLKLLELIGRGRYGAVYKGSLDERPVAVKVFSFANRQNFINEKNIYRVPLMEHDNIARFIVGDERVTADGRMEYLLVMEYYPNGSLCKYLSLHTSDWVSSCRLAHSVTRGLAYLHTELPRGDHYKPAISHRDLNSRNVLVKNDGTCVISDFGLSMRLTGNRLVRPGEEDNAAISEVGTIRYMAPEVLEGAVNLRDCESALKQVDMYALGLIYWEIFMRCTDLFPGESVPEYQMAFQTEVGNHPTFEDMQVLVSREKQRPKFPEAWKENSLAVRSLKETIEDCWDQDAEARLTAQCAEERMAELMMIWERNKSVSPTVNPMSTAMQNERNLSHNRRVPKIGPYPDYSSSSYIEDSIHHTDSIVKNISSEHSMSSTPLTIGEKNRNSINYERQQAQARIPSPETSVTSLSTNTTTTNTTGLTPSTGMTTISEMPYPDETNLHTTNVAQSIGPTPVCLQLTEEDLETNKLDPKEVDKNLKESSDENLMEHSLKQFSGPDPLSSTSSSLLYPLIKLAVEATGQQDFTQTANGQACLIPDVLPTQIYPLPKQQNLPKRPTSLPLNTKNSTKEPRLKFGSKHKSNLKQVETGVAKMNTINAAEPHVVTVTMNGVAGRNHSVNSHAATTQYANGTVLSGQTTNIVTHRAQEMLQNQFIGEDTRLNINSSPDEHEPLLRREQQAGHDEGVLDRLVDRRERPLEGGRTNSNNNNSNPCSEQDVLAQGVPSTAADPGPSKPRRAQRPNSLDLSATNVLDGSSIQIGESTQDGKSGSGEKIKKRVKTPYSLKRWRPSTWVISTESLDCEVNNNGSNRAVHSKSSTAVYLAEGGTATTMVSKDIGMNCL

Binder	Agonist activity in DiscoverX assay, % Emax BMP9 [1]	HEK-Blue assay, % human IL-18 [2]	HEK-Blue assay, % hu-IL-18 [3]
B1	78 % Emax BMP9		
B2		65 % of human IL18 activity	89 % of human IL18 activity
B3		85 % of human IL18 activity	98 % of human IL18 activity
B4			65 % of human IL18 activity

Source: patent publication US20240383990A1 (DIAGONAL THERAPEUTICS, published 2024)
